According to publication PMC9599533:

Target: α-subunit of the M. tuberculosis open gate 20S core particle (M. tuberculosis) (UniProt P9WHU1)
Assay: cryo-EM structure

α-subunit of the M. tuberculosis open gate 20S core particle (from UniProt P9WHU1 9-248) (domain or fragment)
stoichiometry N: 7
